Residue numbers refer to the chain shown, from its start. One block for each binder: values may come before it.
Assays:
amyloid beta 1-42 fibers = target: T1, amyloid beta 1-42 fibers (UniProt P05067 672-713); assay: SPR (BIACORE), Aβ1-42 fibers immobilized on CM5 chip, antibody 0.05-1.0 µM
T1 construct: domain: amyloid beta 1-42; Many copies per fiber; also called Aβ1-42 fibers; fibrillar Aβ1-42
Experimental: (§1) BIACORE® technology utilizes changes in the refractive index at the surface layer upon binding of the antibody to the antigen immobilized on the layer. Binding is detected by surface plasmon resonance (SPR) of laser light refracting from the surface. Analysis of the signal kinetics on rate and off rate allows the discrimination between non-specific and specific interaction. The concentration of antibody used was in the range of 0.05 μM to 1.0 μM.

[1] = target: T2, amyloid beta 1-42 monomers (UniProt P05067 672-713); assay: SPR (BIACORE), Aβ1-42 monomers immobilized on CM5 chip, antibody 0.05-1.0 µM
T2 construct: domain: amyloid beta 1-42; also called Aβ1-42 monomers; amyloid monomers
Experimental: as §1

[2] = target: T3, Amyloid Beta (antigen of the Amyloid Beta ELISA) (UniProt P05067 672-713, limits assumed); assay: Amyloid Beta ELISA, conditioned medium from transient transfection
[3] = target: T3, Amyloid Beta (antigen of the Amyloid …); assay: Amyloid Beta ELISA, purified antibodies

T2 sequence (P05067 672-713 limits assumed): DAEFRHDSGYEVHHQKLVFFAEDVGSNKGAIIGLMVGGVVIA
T1 sequence (P05067 672-713 limits assumed): as above
T3 sequence (P05067 672-713 limits assumed): as above

B1: chimeric antibody C2 ChVH AF/ChVK (antibody, human IgG4 S228P, kappa, V domains shown)
VH: EVQLVESGGGLVQPGGSLKLSCAASGFTFSSYGMSWVRQTPDKRLELVASINSNGGSTYYPDSVKGRFTISRDNAKNTLYLQMSSLKSEDTAMYYCASGDYWGQGSTLTVSS
VL: DVVMTQTPLSLPVSLGDQASISCRSSQSLVYSNGDTYLHWYLQKPGQSPKLLIYKVSNRFSGVPDRFSGSGSGTDFTLKISRVEAEDLGVYFCSQSTHVPWTFGGGTKLEIKR
notes: also called C2 VH AF/C2 VK chimeric antibody; chimeric AF
- Kd (amyloid beta 1-42 fibers): 6.5 nM
- koff (amyloid beta 1-42 fibers): 0.00033 s⁻¹
- kon (amyloid beta 1-42 fibers): 51000 M⁻¹ s⁻¹
- Kd [1]: 20 nM
- koff [1]: 0.00095 s⁻¹
- kon [1]: 47000 M⁻¹ s⁻¹

B3: humanized antibody C2 HuVH2/HuVK3 (antibody, human IgG4 S228P, kappa, V domains shown)
VH: EVQLVESGGGLVQPGGSLRLSCAASGFTFSSYGMSWVRQAPGKGLEWVASINSNGGSTYYPDSVKGRFTISRDNAKNSLYLQMNSLRAEDTAVYYCASGDYWGQGTTVTVSS
VL: B1 VL with V2I, T7S, S14T, L15P, D17E, Q18P, L88V, F92Y, G105Q, L109V
notes: also called C2HuVHAF2 with C2HuVK3
- fold reduction of binding activity against chimeric control antibody C2 ChVHAF/ChVK [3]: ~2 fold

Other lines, results leading:

- binding result [2]: no binding
B2: C2 HuVH AF version 3 combined with the chimeric C2 kappa chain (antibody, V domains shown)
VH: B3 VH with W47L, S98R
VL: DVVMTQTPLSLPVSLGDQASISCRSSQSLVYSNGDTYLHWYLQKPGQSPKLLIYKVSNRFSGVPDRFSGSGSGTDFTLKISRVEAEDLGVYFCSQSTHVPWTFGGGTKLEIK
notes: Transient expression in HEK293; also called C2HuVHAF3/ChVK

- Kd (amyloid beta 1-42 fibers): 4.7 nM
- koff (amyloid beta 1-42 fibers): 0.00023 s⁻¹
- kon (amyloid beta 1-42 fibers): 49000 M⁻¹ s⁻¹
- Kd [1]: 19 nM
- koff [1]: 0.00095 s⁻¹
- kon [1]: 50000 M⁻¹ s⁻¹
B4: humanized antibody C2HuVH4/HuVK1 (antibody, human IgG4 S228P, kappa, V domains shown)
VH: B3 VH with W47L
VL: DIVMTQSPLSLPVTPGEPASISCRSSQSLVYSNGDTYLHWYLQKPGQSPQLLIYKVSNRFSGVPDRFSGSGSGTDFTLKISRVEAEDVGVYYCSQSTHVPWTFGQGTKVEIKR
notes: also called H4K1; humanized H4K1

Source: US20100150906A1 (AC IMMUNE S A, published 2010)
